Common to all, as to test: cell-based or functional assay
The target in assay [1] is FAK(h) (human, UniProt Q05397 1-1052, limits assumed).
Assay [2] addresses Rsk1(h) (human, UniProt Q15418 1-735, limits assumed).
Assay [3] deals with T1, PKCε(h) (human, UniProt Q02156 1-737).
T1 sequence (looked up): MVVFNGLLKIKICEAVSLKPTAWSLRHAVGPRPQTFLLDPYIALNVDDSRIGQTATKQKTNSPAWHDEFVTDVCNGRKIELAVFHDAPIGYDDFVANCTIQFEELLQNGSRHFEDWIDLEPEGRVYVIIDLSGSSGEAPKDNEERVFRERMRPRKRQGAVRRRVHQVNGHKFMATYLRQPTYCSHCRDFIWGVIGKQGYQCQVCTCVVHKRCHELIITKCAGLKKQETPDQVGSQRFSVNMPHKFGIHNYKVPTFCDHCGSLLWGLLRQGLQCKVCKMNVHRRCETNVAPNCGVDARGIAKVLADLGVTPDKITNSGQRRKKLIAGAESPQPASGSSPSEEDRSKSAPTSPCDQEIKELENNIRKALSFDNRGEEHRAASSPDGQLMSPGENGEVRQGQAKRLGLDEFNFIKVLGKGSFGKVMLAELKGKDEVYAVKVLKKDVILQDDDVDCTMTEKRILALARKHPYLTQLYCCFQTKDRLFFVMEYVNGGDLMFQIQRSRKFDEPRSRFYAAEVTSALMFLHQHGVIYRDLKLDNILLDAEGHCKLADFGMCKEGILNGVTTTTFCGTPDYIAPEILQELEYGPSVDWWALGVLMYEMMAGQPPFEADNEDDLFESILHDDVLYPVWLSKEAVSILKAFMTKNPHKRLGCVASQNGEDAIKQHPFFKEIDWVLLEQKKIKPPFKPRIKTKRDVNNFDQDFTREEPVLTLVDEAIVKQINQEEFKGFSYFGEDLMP

Assay [4] addresses CHK2(h) (human, UniProt O96017 5-543, limits assumed).
In assay [5] the target is CDK1/cyclinB(h) (human, UniProt P06493 1-297; P06493 1-297).
CDK1/cyclinB(h), sequence (P06493 whole entry, chain 1 of 2): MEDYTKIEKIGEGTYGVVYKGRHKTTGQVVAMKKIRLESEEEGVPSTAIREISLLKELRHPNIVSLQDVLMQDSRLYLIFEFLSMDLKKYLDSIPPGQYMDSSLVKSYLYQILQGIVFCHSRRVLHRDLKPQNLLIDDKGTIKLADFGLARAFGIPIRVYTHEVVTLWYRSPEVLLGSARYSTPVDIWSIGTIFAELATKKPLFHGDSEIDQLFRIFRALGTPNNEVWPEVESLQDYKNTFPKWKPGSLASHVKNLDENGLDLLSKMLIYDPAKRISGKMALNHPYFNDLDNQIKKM
CDK1/cyclinB(h), sequence (P06493 whole entry, chain 2 of 2): as the sequence (P06493 whole entry, chain 1 of 2) above
The target in assay [6] is T2, PhKγ2(h) (human, UniProt P15735 1-406, limits assumed).
T2 sequence (looked up): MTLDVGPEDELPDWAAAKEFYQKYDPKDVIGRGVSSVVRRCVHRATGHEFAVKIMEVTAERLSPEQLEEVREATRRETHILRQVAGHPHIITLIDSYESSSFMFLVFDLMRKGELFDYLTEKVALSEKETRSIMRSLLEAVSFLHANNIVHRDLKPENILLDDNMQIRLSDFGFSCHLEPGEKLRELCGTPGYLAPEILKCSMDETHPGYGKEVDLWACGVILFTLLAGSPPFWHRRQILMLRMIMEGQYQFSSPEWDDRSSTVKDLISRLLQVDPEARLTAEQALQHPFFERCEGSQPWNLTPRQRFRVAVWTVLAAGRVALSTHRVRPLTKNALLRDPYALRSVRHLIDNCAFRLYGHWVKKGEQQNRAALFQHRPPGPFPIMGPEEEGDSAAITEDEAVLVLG

The target of assay [7] is T3, SAPK3(h) (human, UniProt P53778 1-367).
T3 sequence (looked up): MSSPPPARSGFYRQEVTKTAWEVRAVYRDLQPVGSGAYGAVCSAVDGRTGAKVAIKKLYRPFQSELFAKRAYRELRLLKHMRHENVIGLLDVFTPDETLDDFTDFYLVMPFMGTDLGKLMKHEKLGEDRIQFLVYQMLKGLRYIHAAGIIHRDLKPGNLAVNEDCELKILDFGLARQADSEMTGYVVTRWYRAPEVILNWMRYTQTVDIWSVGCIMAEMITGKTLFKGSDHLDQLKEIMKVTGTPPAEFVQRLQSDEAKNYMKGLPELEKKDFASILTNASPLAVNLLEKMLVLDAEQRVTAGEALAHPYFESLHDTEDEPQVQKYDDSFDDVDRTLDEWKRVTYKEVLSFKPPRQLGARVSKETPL

Assay [8] concerns the target T4, TSSK1(h) (human, UniProt Q9BXA7 1-367).
T4 sequence (looked up): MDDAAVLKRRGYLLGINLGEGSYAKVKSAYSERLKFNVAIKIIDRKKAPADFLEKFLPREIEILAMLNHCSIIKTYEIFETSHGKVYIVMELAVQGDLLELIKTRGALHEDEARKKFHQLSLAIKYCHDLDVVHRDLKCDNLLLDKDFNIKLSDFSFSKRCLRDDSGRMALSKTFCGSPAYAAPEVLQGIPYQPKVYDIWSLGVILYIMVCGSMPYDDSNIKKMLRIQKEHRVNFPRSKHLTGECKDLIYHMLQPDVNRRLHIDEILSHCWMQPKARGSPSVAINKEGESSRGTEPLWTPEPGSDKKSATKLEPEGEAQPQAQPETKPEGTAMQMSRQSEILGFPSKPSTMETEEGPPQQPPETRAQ

Assay [9] addresses ASK1(h) (human, UniProt Q99683 649-946, limits assumed).
The target of assay [10] is CHK2(R145W)(h) (human, UniProt O96017 5-543, limits assumed).
CHK2(R145W)(h), sequence (O96017 5-543 R145W limits assumed): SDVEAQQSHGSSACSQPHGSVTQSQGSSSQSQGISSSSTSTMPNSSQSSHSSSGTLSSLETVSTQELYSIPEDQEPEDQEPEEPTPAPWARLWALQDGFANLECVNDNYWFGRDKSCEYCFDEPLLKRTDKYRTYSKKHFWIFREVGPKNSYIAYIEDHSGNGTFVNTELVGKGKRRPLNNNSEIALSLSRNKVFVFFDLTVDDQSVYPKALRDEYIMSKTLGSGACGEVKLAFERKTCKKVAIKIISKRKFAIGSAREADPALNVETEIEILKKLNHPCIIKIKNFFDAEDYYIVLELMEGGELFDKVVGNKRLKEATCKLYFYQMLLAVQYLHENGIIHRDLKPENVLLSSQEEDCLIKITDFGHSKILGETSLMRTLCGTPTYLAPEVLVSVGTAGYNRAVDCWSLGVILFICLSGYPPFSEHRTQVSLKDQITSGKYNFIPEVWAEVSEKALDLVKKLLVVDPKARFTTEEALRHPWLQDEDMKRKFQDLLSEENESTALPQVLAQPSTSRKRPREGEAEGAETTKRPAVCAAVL
In assay [11] the target is Ab1(h) (human, UniProt P00519 27-1130, limits assumed).
Ab1(h), sequence (P00519 27-1130 limits assumed): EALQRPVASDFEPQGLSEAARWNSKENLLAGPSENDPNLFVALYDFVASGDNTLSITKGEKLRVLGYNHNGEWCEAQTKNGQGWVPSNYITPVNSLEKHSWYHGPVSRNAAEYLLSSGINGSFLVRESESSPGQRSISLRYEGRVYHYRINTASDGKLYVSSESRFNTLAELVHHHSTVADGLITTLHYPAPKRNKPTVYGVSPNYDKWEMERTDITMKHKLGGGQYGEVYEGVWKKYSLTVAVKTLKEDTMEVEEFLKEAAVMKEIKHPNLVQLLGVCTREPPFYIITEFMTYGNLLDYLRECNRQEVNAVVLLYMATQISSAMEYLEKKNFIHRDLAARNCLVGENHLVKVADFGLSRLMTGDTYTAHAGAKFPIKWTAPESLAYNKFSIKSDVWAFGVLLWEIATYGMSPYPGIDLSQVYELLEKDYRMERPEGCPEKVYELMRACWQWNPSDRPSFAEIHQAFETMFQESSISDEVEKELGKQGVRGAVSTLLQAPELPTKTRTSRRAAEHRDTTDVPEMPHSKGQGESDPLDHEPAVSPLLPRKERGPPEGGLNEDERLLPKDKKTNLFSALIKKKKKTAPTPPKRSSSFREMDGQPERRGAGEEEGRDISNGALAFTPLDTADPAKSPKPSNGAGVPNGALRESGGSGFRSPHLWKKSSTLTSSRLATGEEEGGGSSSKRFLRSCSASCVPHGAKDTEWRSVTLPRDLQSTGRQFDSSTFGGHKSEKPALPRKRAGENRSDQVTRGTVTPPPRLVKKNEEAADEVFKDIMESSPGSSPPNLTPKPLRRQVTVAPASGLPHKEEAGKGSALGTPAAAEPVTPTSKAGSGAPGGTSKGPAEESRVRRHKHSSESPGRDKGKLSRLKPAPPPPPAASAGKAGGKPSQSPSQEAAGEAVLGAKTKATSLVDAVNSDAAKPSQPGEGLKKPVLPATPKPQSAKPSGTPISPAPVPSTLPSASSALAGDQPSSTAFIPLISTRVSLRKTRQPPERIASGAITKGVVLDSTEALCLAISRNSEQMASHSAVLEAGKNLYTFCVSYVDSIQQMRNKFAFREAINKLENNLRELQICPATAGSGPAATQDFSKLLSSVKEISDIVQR
The target of assay [12] is STK33(h) (human, UniProt Q9BYT3 1-514, limits assumed).
STK33(h), sequence (Q9BYT3 whole entry): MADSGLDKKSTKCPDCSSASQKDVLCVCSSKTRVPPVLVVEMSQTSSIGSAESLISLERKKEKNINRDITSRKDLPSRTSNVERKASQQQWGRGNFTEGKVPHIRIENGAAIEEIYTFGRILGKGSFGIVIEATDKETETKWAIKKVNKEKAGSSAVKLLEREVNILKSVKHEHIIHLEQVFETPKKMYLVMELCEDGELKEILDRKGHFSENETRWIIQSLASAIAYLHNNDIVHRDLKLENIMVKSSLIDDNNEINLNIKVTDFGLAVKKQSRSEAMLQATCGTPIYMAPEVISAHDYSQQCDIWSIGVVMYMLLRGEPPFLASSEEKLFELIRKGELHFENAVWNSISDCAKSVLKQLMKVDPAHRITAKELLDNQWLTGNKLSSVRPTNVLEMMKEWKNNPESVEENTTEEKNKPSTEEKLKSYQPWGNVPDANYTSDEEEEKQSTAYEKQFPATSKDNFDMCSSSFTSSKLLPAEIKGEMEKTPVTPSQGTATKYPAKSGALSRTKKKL
Assay [13] deals with DAPK1(h) (human, UniProt P53355 1-289, limits assumed).
DAPK1(h), sequence (P53355 1-289 limits assumed): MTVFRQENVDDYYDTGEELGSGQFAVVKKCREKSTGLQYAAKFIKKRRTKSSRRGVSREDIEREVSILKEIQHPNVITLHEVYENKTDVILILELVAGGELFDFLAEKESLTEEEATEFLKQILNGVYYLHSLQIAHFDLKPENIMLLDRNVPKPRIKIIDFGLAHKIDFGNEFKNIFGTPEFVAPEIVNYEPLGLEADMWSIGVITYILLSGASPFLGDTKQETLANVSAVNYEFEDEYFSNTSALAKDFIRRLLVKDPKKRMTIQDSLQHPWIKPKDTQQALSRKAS

The text below walks through data of patent publication US20160200782A1 (MOERAE MATRIX, published 2016).
Also: test concentration or dose not given here.

Rsk1(h), sequence (Q15418 whole entry): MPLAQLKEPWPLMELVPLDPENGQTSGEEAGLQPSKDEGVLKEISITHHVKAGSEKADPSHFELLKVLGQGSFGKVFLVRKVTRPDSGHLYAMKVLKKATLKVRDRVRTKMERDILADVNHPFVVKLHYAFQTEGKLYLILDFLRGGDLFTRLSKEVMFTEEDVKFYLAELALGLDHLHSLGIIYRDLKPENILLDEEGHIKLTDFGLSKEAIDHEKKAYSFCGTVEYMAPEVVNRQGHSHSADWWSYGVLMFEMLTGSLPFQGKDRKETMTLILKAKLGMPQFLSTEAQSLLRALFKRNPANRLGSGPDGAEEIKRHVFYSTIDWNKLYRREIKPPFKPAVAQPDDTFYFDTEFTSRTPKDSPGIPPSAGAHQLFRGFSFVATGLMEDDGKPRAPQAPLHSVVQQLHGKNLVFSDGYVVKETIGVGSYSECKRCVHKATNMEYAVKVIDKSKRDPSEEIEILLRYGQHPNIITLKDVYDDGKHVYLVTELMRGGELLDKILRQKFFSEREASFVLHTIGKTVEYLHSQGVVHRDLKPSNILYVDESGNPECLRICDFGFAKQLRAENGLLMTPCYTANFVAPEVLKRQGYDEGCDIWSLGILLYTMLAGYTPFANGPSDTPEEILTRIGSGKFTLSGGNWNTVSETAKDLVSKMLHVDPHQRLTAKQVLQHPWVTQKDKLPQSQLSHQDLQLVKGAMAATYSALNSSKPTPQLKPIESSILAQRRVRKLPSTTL
CHK2(h), sequence (O96017 5-543 limits assumed): as the sequence (O96017 5-543 R145W limits assumed) above, with W141R counted along it
ASK1(h), sequence (Q99683 649-946 limits assumed): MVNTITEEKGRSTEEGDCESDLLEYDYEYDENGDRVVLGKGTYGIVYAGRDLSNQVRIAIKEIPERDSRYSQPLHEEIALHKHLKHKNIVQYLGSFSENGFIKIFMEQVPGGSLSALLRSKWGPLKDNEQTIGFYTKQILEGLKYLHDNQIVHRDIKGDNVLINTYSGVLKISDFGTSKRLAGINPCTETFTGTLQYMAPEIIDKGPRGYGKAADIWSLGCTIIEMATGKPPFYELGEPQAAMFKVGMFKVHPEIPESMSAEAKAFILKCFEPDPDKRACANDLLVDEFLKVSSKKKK

B1: MMI-0400 (peptide)
peptide: KAFAKLAARLYRKALARQLGVAA
In the case of B1, the “% activity” value is 96% in [1]; 54% in [2]; 59% in assay [3]; 54% in assay [4]; 74% in assay [5]; 38% in [6]. Moreover, the “% activity” value was 79% in [7]; 79% in [8]; 69% in [9]; 31% in assay [10]; 84% in [11]; 52% in assay [12]. Further, the “% activity” value in [13] worked out at 36%.

B2: MMI-0300 (peptide)
peptide: FAKLAARLYRKALARQLGVAA
For B2, the “% activity” value in assay [1] is 111%; in [2], 46%; in assay [3], 79%; in assay [4], 66%; in assay [5], 73%; in assay [6] it was 46%. The “% activity” value in assay [7] came out at 84%; in assay [8], 79%; in [9] it was 80%; in [10], 33%; in [11], 69%; in assay [12], 45%. Also, in assay [13], the “% activity” value was 46%.
